Assay results from patent US20240124563A1.
Blank lines part the entries; values can stand above or below the binder they belong to.

Key:
[1] = target: monkey MSLN full-length protein on HEK293T cells (monkey); test: FACS, HEK293T-monkey MSLN cells
[2] = target: monkey MSLN full-length protein on HEK293T cells (monkey); test: FACS, HEK293T-monkey-MSLN cells, antibody 100 nM
[3] = target: monkey MSLN full-length protein on HEK293T cells (monkey); test: FACS, HEK293T-monkey-MSLN cells, antibody 0.00128 nM
[4] = target: monkey MSLN full-length protein on HEK293T cells (monkey); test: FACS, HEK293T-monkey-MSLN cells, antibody 0.8 nM
[5] = target: monkey MSLN full-length protein on HEK293T cells (monkey); test: FACS, HEK293T-monkey-MSLN cells, antibody 0.032 nM
[6] = target: monkey MSLN full-length protein on HEK293T cells (monkey); test: FACS, HEK293T-monkey-MSLN cells, antibody 0.16 nM
[7] = target: monkey MSLN full-length protein on HEK293T cells (monkey); test: FACS, HEK293T-monkey-MSLN cells, antibody 4 nM
[8] = target: monkey MSLN full-length protein on HEK293T cells (monkey); test: FACS, HEK293T-monkey-MSLN cells, antibody 0.0064 nM
[9] = target: monkey MSLN full-length protein on HEK293T cells (monkey); test: FACS, HEK293T-monkey-MSLN cells, antibody 20 nM
[10] = target: human MSLN-R3 protein on HEK293T cells (human) (UniProt Q13421); test: FACS, HEK293T-hMSLN R3 cells
human MSLN-R3 protein on HEK293T cells (human), sequence (Q13421 495-614, form in doubt): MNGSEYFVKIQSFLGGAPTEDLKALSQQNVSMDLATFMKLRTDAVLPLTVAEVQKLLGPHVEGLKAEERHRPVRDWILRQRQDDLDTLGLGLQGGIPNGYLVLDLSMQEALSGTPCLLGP

EC50 [1]: 1.15 nM | Max MFI [1]: 8640 | FACS signal (MFI) [2]: 3290 | FACS signal (MFI) [3]: 90 | FACS signal (MFI) [4]: 860 | FACS signal (MFI) [5]: 142 | FACS signal (MFI) [6]: 313 | FACS signal (MFI) [7]: 2440 | FACS signal (MFI) [8]: 100 | FACS signal (MFI) [9]: 2660 | Mean Fluorescence Intensity of Cells [10]: 1690
B1: Tab106 (YP218, hIgG1) (antibody, V domains shown)
VH: QQQLEESGGGLVKPEGSLTLTCKASGFDLGFYFYACWVRQAPGKGLEWIACIYTAGSGSTYYASWAKGRFTISKASSTTVTLQMTSLAAADTATYFCARSTANTRSTYYLNLWGPGTLVTVSS
VL: DVVMTQTPASVSEPVGGTVTIKCQASQRISSYLSWYQQKPGQRPKLLIFGASTLASGVPSRFKGSGSGTEYTLTISDLECADAATYYCQSYAYFDSNNWHAFGGGTEVVVRT

FACS signal (MFI) [2]: 126 | FACS signal (MFI) [3]: 85 | FACS signal (MFI) [4]: 88 | FACS signal (MFI) [5]: 85 | FACS signal (MFI) [6]: 86 | FACS signal (MFI) [7]: 90 | FACS signal (MFI) [8]: 85 | FACS signal (MFI) [9]: 100
B2: Tab020 (YP223, rabbitIgG1) (antibody, V domains shown)
VH: QEQLEESGGDLVQPEGSLTLTCKASGLDFSSSYWICWVRQAPGKGLEWIGCRHTFTANTWSASWVNGRFTISRSTSLGTVDLKMTSLTAADTATYFCARDESNNDGWDFKLWGPGTLVTVSS
VL: AYDMTQTPASVSAAVGGTVTIKCQASQSISNYLAWYQQKPGQPPKLLIYQASTLAPGVSSRFKGSGSGTEFTLTISGVECADAATYYCQQGYTSSNVENVFGGGTGVVVGD

FACS signal (MFI) [2]: 3930 | FACS signal (MFI) [3]: 119 | FACS signal (MFI) [4]: 918 | FACS signal (MFI) [5]: 131 | FACS signal (MFI) [6]: 288 | FACS signal (MFI) [7]: 3140 | FACS signal (MFI) [8]: 96 | FACS signal (MFI) [9]: 3650
B3: Tab107 (YP3, hIgG1) (antibody, V domains shown)
VH: QEQLVESGGGLVQPGASLTLTCTASGIDFSRYYMCWVRQAPGKGLEGIACIYIGGSGSTYYASWAKGRFTISKASSTTVTLQMTSLTAADTATYFCARGTNLNYIFRLWGPGTLVTVSS
VL: DVVMTQTPSPVSAAVGGTVTIKCQASQSINNGLAWYQQKPGQPPRLLIYSASNLESGVPSRFKGSGSGTEFTLTISDLECDDAATYYCQCIWDGNSYVNAFGGGTEVVVRT
